We go through 16 molecules from patent US20260069689A1 (Regeneron, published 2026).

The target of experiment [1] is SARS-COV-2 RBD extracellular domain expressed with a C-terminal myc-myc-hexahistidine tag (SARS-CoV-2). In words: SPR (Biacore), mAb captured by anti-human Fc, RBD-mmH in solution, 25 C. (In general: SPR reads the build-up and loss of mass on a sensor chip optically.)
Experiment [2] deals with human FcγR3a 176Val allotype receptor (human, UniProt P08637 17-254). In words: cell-based or functional assay.
The target in experiment [3] is SARS-COV-2 RBD-MMH (SARS-CoV-2). In words: SPR 37C, run with dissociation at pH 5.0.
For experiment [4] the target is unchanged. In words: SPR 37C, run with dissociation at pH 7.4.
Experiment [5] concerns the target SARS-CoV-2 RBD.mmh (Spike amino acids Arg319-Phe541 with C-terminal myc-myc-6-Histidine tag) (SARS-CoV-2, UniProt P0DTC2 319-541).
The target in experiment [6] is T1, SARS-COV-2 RBD-MMH (SARS-COV-2 RBD extracellular domain with C-terminal myc-myc-hexahistidine tag) (SARS-CoV-2). In words: SPR 37C, mAb captured, pH 7.4 vs pH 6.0.
For experiment [7], the target named is T1, SARS-COV-2 RBD-MMH (SARS-COV-2 RBD …).

Positions count from the first letter of the chain named. Values joined by “and” are separate entries in the source; they are usually repeats but may differ in a detail not shown here. Equal values may be shown once.

B1: mAb14247 (antibody, V domains shown)
VH: QITLKESGPTLVKPTQTLTLTCTFSGFSLSTSAVGVGWIRQPPGKALEWLALIYWDDDKRYSPSLKSRLTITKDTSKNQLVLTMTNVDPVDTATYYCAHHTIQLIFDYWGQGTLVTVSS
VL: QSALTQPASVSGSPGQSITISCTATSSDVGNYNYVSWYQQHPGKAPKLMIYEVSNRPSGVSNRFSGSKSGNTASLTISGLQAEDEADYYCSSYTSSSTPLVFGGGTKLTVLG
Consider B1, for which, in experiment [1], binding was put at a Kd of 1.94 nM; the koff (commonly the rate constant with which the complex falls apart) was 0.00163 s⁻¹; the kon (in general, the rate constant with which the complex forms) worked out at 838000 M⁻¹ s⁻¹; the t½ (commonly the time needed for the level to fall by half in the phase considered) is 7.1 min.

B2: mAb14290 (antibody)
heavy: not shown
light: EIVLTQSPGTLSLSPGERATLSCRASQSVNNNYLAWYQQKPGQTPRLLIYGASSRATGIPDRFSGSGSGTDFTLTITRLEPEDFAVYHCQQYGRSPTTFGQGTRLEIKRTVAAPSVFIFPPSDEQLKSGTASVVCLLNNFYPREAKVQWKVDNALQSGNSQESVTEQDSKDSTYSLSSTLTLSKADYEKHKVYACEVTHQGLSSPVTKSFNRGEC
With B2, in experiment [2], the “EC50 (M), Jurkat/CD20/spike” value worked out at 3.42e-09 M; the “Fold induction, Jurkat CD20” value stood at 1 fold; the “Fold induction, Jurkat/CD20/spike” value is 9.5 fold.

B3: mAb14315 (antibody, V domains shown)
VH: QVQLVQSGAEVKKPGSSVKVSCKASGDTFSTYAINWVRQAPGQGLEWMGRFIHIFGTANYAQKFQGRVTITADESTSTAYMELRSLRSEDTAVYYCARDGVDYGDYRPDYWGQGTLVTVSS
VL: EIVLTQSPGTLSLSPGERATLSCRASQSVSSNYLAWYQQKPGQAPRLLIYGASSRATGIPERFSGSGSGTDFTLTISRLEPEDFAVYYCQQYGSSLYTFGQGTKLEIKR
Regarding B3, in experiment [1], binding was characterised by a dissociation constant (Kd) of 2.49 nM, the dissociation rate constant (koff) turned out to be 0.00102 s⁻¹, the association rate constant (kon) was 407000 M⁻¹ s⁻¹ and the t½ is 11.4 min.

B4: mAb14255 (antibody, V domains shown)
VH: QVQLQESGPGLVKPSETLSLTCTVSGGSISGYYWSWIRQPPGKGLDWIGYIYYRGNTNYNPSLKSRVTISVDTSNNQFSLKLSSVTAADTAVYYCARYGEGYGDASGYHFDYWGQGTLVTVSS
VL: QSALTQPASVSGSPGQSITISCTGTSSDVGSYNLVSWYQQHPGKAPKLMIYEDSKRPSGVANPFSGSKSGNTASLTISGLQAEDEADYYCSSYAGSSTWVFGGGTKLTVLG
On to B4, for which, in experiment [1], the dissociation constant (Kd) (commonly the equilibrium constant for the complex coming apart) worked out at 2.84 nM, the off-rate constant (koff) was found to be 0.00499 s⁻¹, the kon was 1.75e+06 M⁻¹ s⁻¹ and the t½ worked out at 2.3 min.

B5: mAb14232 (antibody)
heavy: not shown
light: QSALTQPPSASGSPGQSVTISCTATSSDVGNYNYVSWYQQHPGKAPKLMIYEVTKRPSGVPDRFSGSKSGNTASLTVSGLQAEDEADYYCSSYAGSWGVFGGGTKLTVLGQPKAAPSVTLFPPSSEELQANKATLVCLISDFYPGAVTVAWKADSSPVKAGVETTTPSKQSNNKYAASSYLSLTPEQWKSHRSYSCQVTHEGSTVEKTVAPTECS
As to B5, in the experiment with SARS-COV-2 RBD-MMH [3], the “RBD.mmh Bound at pH 7.4 (RU)” value was determined as 10.1 RU, the koff stood at 0.000656 s⁻¹ and the t½ came to 17.6 min. In addition, in the experiment with SARS-COV-2 RBD-MMH [4], the “RBD.mmh Bound at pH 7.4 (RU)” value is 8.2 RU and the koff came to 0.0311 s⁻¹. Also, in experiment [2], the “EC50 (M), Jurkat/CD20/spike” value was found to be 1.31e-10 M; the “Fold induction, Jurkat CD20” value stood at 1.2 fold; the “Fold induction, Jurkat/CD20/spike” value came to 10.8 fold.

B6: mAb14314 (antibody)
heavy: not shown
light: QSVLTQPPSVSAAPGQKVTISCSGSISNIGNNYVSWYQQLPGTAPKLLIYDNDKRPSGIPDRFSGSRSGTSATLGITGLQTGDEADYYCGTWDSSLTAYVFGTGTKVTVLGQPKAAPSVTLFPPSSEELQANKATLVCLISDFYPGAVTVAWKADSSPVKAGVETTTPSKQSNNKYAASSYLSLTPEQWKSHRSYSCQVTHEGSTVEKTVAPTECS
Consider B6, for which, in experiment [2], the “Fold induction, Jurkat CD20” value was 1.1 fold and the “Fold induction, Jurkat/CD20/spike” value amounted to 3.9 fold.

B7: mAb13458 (antibody, V domains shown)
VH: EVQLVESGGGLVQPGRSLRLSCAASGFTFDDYAMHWVRQAPGKGLEWVSGISWNSGSIGYADSVKGRFTISRDNAKNSLYLQMNSLRAEDTALYYCAKDIGITTPYWGQGTLVTVSS
VL: AIQMTQSPSSLSASVGDRVTITCRASQDIRNDLGWYQQKPGKAPKLLIYSASSLQTGVPSRFSGSGSGTDFTLTISSLHPEDFATYYCLQDYWYTWTFGQGTKVEIKR
Regarding B7, in experiment [5], the IC50 (as a rule, the midpoint of a concentration-inhibition curve) came to 0.873 nM. In addition, the “t½ Ratio of pH 7.4 to pH 6.0” value in experiment [6] was 1.2. Also, in experiment [7], the koff was determined as 0.00199 s⁻¹, the “t½ at pH 6.0” value amounted to 5.8 min and the “t½ at pH 7.4” value was 7.2 min.

B8: mAb13459 (antibody, V domains shown)
VH: B7 VH
VL: B7 VL with W93N, T95V
The molecule B8 came in with an IC50 in experiment [5] of 4.43 nM. In addition, the “t½ Ratio of pH 7.4 to pH 6.0” value in experiment [6] was determined as 1.1. In experiment [7], the off-rate (koff) was 0.00229 s⁻¹ and 0.00239 s⁻¹; the “t½ at pH 6.0” value turned out to be 4.8 min; the “t½ at pH 7.4” value stood at 5.1 min.

B9: mAb14295 (antibody)
heavy: not shown
light: DIQMTQSPSSLSASVGDRVTITCRASQSINTYLNWYQQKPGKAPNLLIDGASSLQSGVPSRFSGSGSGTDFILTISSLRPEDFATYYCQQSYSIPLTFGGGTRVEIKRTVAAPSVFIFPPSDEQLKSGTASVVCLLNNFYPREAKVQWKVDNALQSGNSQESVTEQDSKDSTYSLSSTLTLSKADYEKHKVYACEVTHQGLSSPVTKSFNRGEC
With B9, in experiment [2], the “EC50 (M), Jurkat/CD20/spike” value was determined as 1.93e-10 M; the “Fold induction, Jurkat CD20” value is 1 fold; the “Fold induction, Jurkat/CD20/spike” value turned out to be 11.5 fold.

B10: mAb14259 (antibody)
heavy: not shown
light: DIVMTQSPLSLPVTPGEPASISCRSSQTLLHSNGYNYLDWYLQKPGQSPQLLIHLGSNRASGVPDRFSGSGSVTDFTLKISRVEAEDVGVYYCMQALQTPYTFGQGTKLEIKRTVAAPSVFIFPPSDEQLKSGTASVVCLLNNFYPREAKVQWKVDNALQSGNSQESVTEQDSKDSTYSLSSTLTLSKADYEKHKVYACEVTHQGLSSPVTKSFNRGEC
As for B10, in experiment [2], the “EC50 (M), Jurkat/CD20/spike” value was 3.94e-10 M; the “Fold induction, Jurkat CD20” value is 1 fold; the “Fold induction, Jurkat/CD20/spike” value was 8.7 fold.

B11: mAb14291 (antibody)
heavy: not shown
light: B10 light with T28S, L38I, D39N, I53M, H54Y, V73G, F76S, V88A, A96T, L97R
With B11, in experiment [2], the “EC50 (M), Jurkat/CD20/spike” value worked out at 3.02e-10 M; the “Fold induction, Jurkat CD20” value is 1.1 fold; the “Fold induction, Jurkat/CD20/spike” value is 9.7 fold.

B12: mAb14257 (antibody, V domains shown)
VH: EVQLVESGGGLVQPGGSLRLSCAASGFTVSRSYMNWVRQAPGKGLEWVSVVFTGGTTKHTDSVKGRFTISRDNSMNTLYLQMNSLRPEDTAVYYCARVAIVETTGAFDIWGQGTMVTVSS
VL: QSVLTQPPSVSGAPGQRVTISCTGTSSNIGADFDVHWYQQFPGTAPKLLIYGHTNRPSGIPDRFSGSKSGTSASLAITGLQAEDEADYYCQSYDSSLSGSVVFGGGTKLTVLG
In experiment [1], B12 gave a Kd of 2.8 nM, a koff of 0.00952 s⁻¹, a kon of 3.4e+06 M⁻¹ s⁻¹ and a t½ of 1.2 min.

B13: mAb14288 (antibody)
heavy: not shown
light: QSVLTQPPSVSAAPGQKVTISCSGSSSNIGNNYVSWYQQLPGTAPKLLIYENNKRPSGIPDRFSGSKSGTSATLGITGLQTGDEADYYCGTWDSSLSAGQGVFGGGTKLTVLGQPKAAPSVTLFPPSSEELQANKATLVCLISDFYPGAVTVAWKADSSPVKAGVETTTPSKQSNNKYAASSYLSLTPEQWKSHRSYSCQVTHEGSTVEKTVAPTECS
For the molecule B13, in experiment [2], the “EC50 (M), Jurkat/CD20/spike” value was found to be 5.1e-10 M; the “Fold induction, Jurkat CD20” value is 1 fold; the “Fold induction, Jurkat/CD20/spike” value turned out to be 6.7 fold.

B14: mAb14285 (antibody)
heavy: not shown
light: QSALTQPASVSGSPGQSITISCTGTSSDVESYNLVSWYQQHPGKAPKLMIYEGSKRPSGVSNRFSGSKSGNTASLTISGLQAEDEADYYCSSYAGSSTWVFGGGTKLTVLGQPKAAPSVTLFPPSSEELQANKATLVCLISDFYPGAVTVAWKADSSPVKAGVETTTPSKQSNNKYAASSYLSLTPEQWKSHRSYSCQVTHEGSTVEKTVAPTECS
For the molecule B14, in the experiment with SARS-COV-2 RBD-MMH [3], the “RBD.mmh Bound at pH 7.4 (RU)” value came out at 51.5 RU, the dissociation rate constant (koff) came out at 0.0025 s⁻¹ and the t½ came out at 4.6 min. Moreover, in the experiment with SARS-COV-2 RBD-MMH [4], the “RBD.mmh Bound at pH 7.4 (RU)” value came out at 64.2 RU and the koff amounted to 0.0258 s⁻¹. Besides, in experiment [2], the “EC50 (M), Jurkat/CD20/spike” value came to 2.43e-10 M; the “Fold induction, Jurkat CD20” value was found to be 1.1 fold; the “Fold induction, Jurkat/CD20/spike” value turned out to be 11 fold.

B15: mAb14287 (antibody)
heavy: not shown
light: B14 light with E30G, G53V, S97R, T98R, W99E
For the molecule B15, in experiment [2], the “EC50 (M), Jurkat/CD20/spike” value turned out to be 1.23e-09 M; the “Fold induction, Jurkat CD20” value is 1 fold; the “Fold induction, Jurkat/CD20/spike” value stood at 6.2 fold.

B16: mAb14233 (antibody)
heavy: not shown
light: SYELTQPPSVSVSPGQTARITCSGDVLAKLYAYWYQHKPGQAPVLVIYKDSERPSGIPERFSGSSSGTTVTLTISGVQAEDEADYYCQSADSSGSLWVFGGGTKLTVLGQPKAAPSVTLFPPSSEELQANKATLVCLISDFYPGAVTVAWKADSSPVKAGVETTTPSKQSNNKYAASSYLSLTPEQWKSHRSYSCQVTHEGSTVEKTVAPTECS
On to B16, for which, in experiment [2], the “EC50 (M), Jurkat/CD20/spike” value worked out at 2.8e-10 M; the “Fold induction, Jurkat CD20” value came to 1.1 fold; the “Fold induction, Jurkat/CD20/spike” value worked out at 11 fold.
